Source: patent US20050010967A1, “SK3-1B GFP transgenic mouse model for spinocerebellar ataxia and hyperexcitable behavior” (The Regents of the University of California, priority 2003, published 2005)

B1: SK3-1B-GFP: SK3-1B coding region inserted in-frame upstream to GFP in pEGFP-N1 expression vector; GFP-tagged truncated SK3 splice variant (protein)
chain: MFSLALKCLISLSTIILLGLIIAYHTREVQLFVIDNGADDWRIAMTYERILYISLEMLVCAIHPIPGEYKFFWTARLAFSYTPSRAEADVDIILSIPMFLRLYLIARVMLLHSKLFTDASSRSIGALNKINFNTRFVMKTLMTICPGTVLLVFSISLWIIAAWTVRVCERYHDQQDVTSNFLGAMWLISITFLSIGYGDMVPHTYCGKGVCLLTGIMGAGCTALVVAVVARKLELTKAEKHVHNFMMDTQLTKRIKNAAANVLRETWLIYKHTKLLKKIDHAKVRKHQRKFLQAIHQLRSVKMEQRKLSDQANTLVDLSKMQNVMYDLITELNDRSEDLEKQIGSLESKLEHLTASFNSLPLLIADTLRQQQQQLLSAIIEARGVSVAVGTTHTPISDSPIGVSSTSFPTPYTSSSSC
modifications: left off: large carriers
notes: SK3-1B coding region inserted in-frame upstream to GFP in pEGFP-N1 expression vector; GFP-tagged truncated SK3 splice variant
B2: SK3-1B-IRES-GFP: Untagged SK3-1B in bicistronic pIRES2-EGFP vector with GFP driven by an internal ribosome entry site (protein)
chain: B1 chain

Experiments:
[1] = target: T1, SK2 channels in Jurkat T lymphocytes (Homo sapiens, UniProt Q9H2S1); assay: Whole cell patch clamp of endogenous SK2 current in Jurkat T lymphocytes; assay type: cell-based
T1 construct: The native SK2 current was suppressed by SK3-1B; endogenous in cells; host or cells: Jurkat T lymphocytes (human)
Source text: (§1) Electrophysiology. PC12 and Jurkat T cells were studied in the whole cell configuration of the patch clamp technique with a holding potential of −80 mV. We determined SK and Kv current amplitude in untransfected cells or in cells transfected with SK3-1B-GFP, SK3-1BIRES-GFP or control constructs (GFP vector alone, GFP-Kv1.7). […] Brightly GFP-positive cells were identified under a fluorescence microscope to allow the analysis of cells expressing high levels of the channel constructs for electrophysiological studies. Control constructs were expressed at equivalently high levels as assessed by the intensity of the GFP signal.
(§2) To activate SK channels, the pipette solution contained (in mM): 145 K^+ aspartate, 2 MgCl2, 10 HEPES, 10 K2EGTA, and 8.5 CaCl2 (1 μM free Ca^2+), pH 7.2, 290-310 mOsm. […] The amplitude of the KV current was measured as the maximum current at 30 mV in 160 Na^+ aspartate. […]
(§3) SK3-1B suppresses other SK channels in a dominant-inhibitory manner. The inventors next determined whether SK3-1B could suppress SK2 channels. […] Using the electrophysiological protocol described above for PC12 cells, SK2 and Kv1.3 currents were measured in Jurkat cells. The inward SK2 current, detected at potentials more negative than −40 mV, was blocked by Lei-Dab (FIG. 5a), a highly specific SK2 peptide inhibitor. […]

[2] = target: T2, Kv1.3 channels in Jurkat T lymphocytes (Homo sapiens, UniProt P22001); assay: Whole cell patch clamp of endogenous Kv1.3 current in Jurkat T lymphocytes; assay type: cell-based
T2 construct: they express SK2 channels and no other SK channels, along with voltage-gated Kv1.3 channels; endogenous in cells; host or cells: Jurkat T lymphocytes (human)
Source text: as §1, §2, §3

[3] = test system: endogenous Kv current in PC12 cells; assay: Whole cell patch clamp of endogenous Kv current in PC12 cells; assay type: cell-based, rat; details: transfected PC12 cells; 160 mM Na+ aspartate external; untransfected 707.94±147.7 pA
Source text: as §1, §2

[4] = target: T3, endogenous SK3 current in PC12 cells (Rattus norvegicus, UniProt P70605); assay: Whole cell patch clamp of endogenous SK (SK3) current in PC12 cells; assay type: cell-based; details: transfected PC12 cells, 48 h post-transfection; untransfected 6.24±1.57 nS
T3 construct: these cells natively express SK3 currents; endogenous in cells; host or cells: PC12 (rat pheochromocytoma)
Source text: as §1, §2

[5] = test system: native SK3 in PC12 cells; assay: Immunolabeling and confocal microscopy of native SK3 localization in PC12 cells; assay type: cell-based, rat; details: transfected PC12 cells; untransfected 1.72±0.08
Description: Immunostaining. Following washing with Dulbecco's phosphate buffered saline (DPBS), cells were fixed with 4% paraformaldehyde for 20 min and washed 2× with DPBS. Permeabilization and blocking was done with 0.2% Triton-X-100 in 10% normal goat serum, followed by a wash with DPBS. Permeabilized cells were incubated with rabbit anti-SK3 antibody (Alomone Labs, Jerusalem, Israel) in a carrier solution containing 1% normal goat serum and 0.2 % sodium azide for 4 h at 4° C. Cells were subsequently washed and incubated with 1 μg/ml Alexa-Fluor 594 (referred to as Alexa-red)-conjugated goat-anti-rabbit-IgG (Molecular Probes) for 1 h at room temperature. […] As an additional test of antibody specificity, the anti-SK3 antibody was shown not to react with SK3-1B protein, an isoform that lacks the SK3 N-terminal epitope detected by the antibody (data not shown). […]
Confocal microscopy. […] The Scion image 4.0.2 program (Scion Corporation, Frederick, Md., USA) was used to determine the pixel intensity of fluorescence that tagged presumptive intracellular and membrane SK3 protein. Three axes were drawn through each stained cell and pixel intensities were measured along each of these axes. […] The average ratio of presumptive membrane to intracellular fluorescence was estimated from these intensity histograms. The expression level of each transfected construct was quantitated as mean pixel intensity. […]

[6] = 100 nM Lei-Dab, untransfected Jurkat T lymphocytes
[7] = transfected Jurkat T lymphocytes, n=4

T3 sequence (P70605 whole entry): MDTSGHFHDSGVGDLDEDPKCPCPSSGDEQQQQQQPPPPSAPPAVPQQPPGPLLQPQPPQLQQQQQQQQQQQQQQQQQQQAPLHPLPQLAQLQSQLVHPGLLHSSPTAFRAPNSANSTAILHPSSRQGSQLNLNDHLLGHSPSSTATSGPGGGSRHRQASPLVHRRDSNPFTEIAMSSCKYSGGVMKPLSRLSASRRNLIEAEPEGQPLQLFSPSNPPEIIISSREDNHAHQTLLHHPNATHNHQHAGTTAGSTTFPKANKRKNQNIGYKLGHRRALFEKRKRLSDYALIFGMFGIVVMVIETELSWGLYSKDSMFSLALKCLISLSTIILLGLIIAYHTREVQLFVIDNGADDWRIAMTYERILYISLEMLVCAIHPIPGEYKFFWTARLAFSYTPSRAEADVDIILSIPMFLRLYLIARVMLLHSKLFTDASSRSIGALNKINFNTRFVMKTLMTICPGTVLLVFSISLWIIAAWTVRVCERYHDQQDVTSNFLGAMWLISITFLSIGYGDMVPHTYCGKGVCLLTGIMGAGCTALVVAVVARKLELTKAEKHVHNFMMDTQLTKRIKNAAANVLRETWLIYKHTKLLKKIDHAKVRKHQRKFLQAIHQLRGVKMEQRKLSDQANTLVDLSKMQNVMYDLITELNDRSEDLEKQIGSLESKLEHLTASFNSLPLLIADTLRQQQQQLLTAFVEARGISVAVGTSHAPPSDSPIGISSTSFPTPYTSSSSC
T1 sequence (Q9H2S1 whole entry): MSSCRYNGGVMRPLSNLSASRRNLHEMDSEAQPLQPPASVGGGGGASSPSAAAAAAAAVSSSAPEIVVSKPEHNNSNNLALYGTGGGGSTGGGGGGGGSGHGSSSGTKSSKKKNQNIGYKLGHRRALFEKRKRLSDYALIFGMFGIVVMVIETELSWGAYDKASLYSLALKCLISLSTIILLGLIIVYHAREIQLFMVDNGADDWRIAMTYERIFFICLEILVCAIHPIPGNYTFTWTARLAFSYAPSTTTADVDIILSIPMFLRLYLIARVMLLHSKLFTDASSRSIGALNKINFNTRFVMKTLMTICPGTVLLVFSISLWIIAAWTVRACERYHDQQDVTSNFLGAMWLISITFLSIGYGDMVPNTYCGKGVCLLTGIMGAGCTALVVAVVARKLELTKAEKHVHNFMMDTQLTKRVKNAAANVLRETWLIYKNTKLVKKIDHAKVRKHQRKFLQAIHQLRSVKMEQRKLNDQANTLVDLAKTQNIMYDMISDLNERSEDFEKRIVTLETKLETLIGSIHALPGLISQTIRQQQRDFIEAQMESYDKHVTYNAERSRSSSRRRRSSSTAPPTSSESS
T2 sequence (P22001 whole entry): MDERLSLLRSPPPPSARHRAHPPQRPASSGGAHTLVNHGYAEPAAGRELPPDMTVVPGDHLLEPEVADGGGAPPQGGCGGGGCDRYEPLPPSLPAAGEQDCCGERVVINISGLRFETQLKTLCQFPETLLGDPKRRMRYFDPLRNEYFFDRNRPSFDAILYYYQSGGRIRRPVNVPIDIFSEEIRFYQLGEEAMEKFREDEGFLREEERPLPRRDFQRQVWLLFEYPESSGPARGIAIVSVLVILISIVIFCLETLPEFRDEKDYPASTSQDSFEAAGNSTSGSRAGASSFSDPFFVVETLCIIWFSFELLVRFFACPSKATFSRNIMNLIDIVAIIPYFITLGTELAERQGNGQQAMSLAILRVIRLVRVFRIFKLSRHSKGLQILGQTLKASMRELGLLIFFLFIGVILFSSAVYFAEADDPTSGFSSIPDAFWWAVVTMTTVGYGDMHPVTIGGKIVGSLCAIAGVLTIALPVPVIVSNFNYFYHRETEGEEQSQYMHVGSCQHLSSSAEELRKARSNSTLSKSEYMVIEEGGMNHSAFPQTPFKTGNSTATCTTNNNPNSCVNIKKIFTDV
Sequence of native SK3 in PC12 cells (P70605 whole entry): as the sequence (P70605 whole entry) above

Row | Molecule | Effect on inward SK2 current [1, 6] | Effect on Kv1.3 current [2, 6] | SK2 current in transfected Jurkat T lymphocytes [1, 7] | Kv currents (mean±SEM), maximum current at 30 mV [3] [pA] | Kv1.3 current in transfected Jurkat T lymphocytes [2, 7] | SK currents (mean±SEM), slope conductance at −80 mV [4] [nS] | Ratio of presumptive membrane to intracellular SK3 fluorescence (mean±SEM) [5]
1 | Lei-Dab [reference compound] | blocked | unaffected |  |  |  |  | 
2 | B1 |  |  | no SK2 current is observed | 475.96±61.78 | resembles that in untransfected cells | 0.68±0.08 | 1.1±0.09
3 | B2 |  |  |  | 560.37±75.9 |  | 1.1±0.03 | 
